Patent publication US10640563B2, “Anti-B7-H3 antibodies and antibody drug conjugates” (AbbVie Inc., priority 2016, dated 2020)

Assays:
[1] = system: NCI-H146 xenograft; assay: NCI-H146 small cell lung cancer xenograft efficacy; type: in vivo, mouse; details: NCI-H146 xenograft in SCID/bg mice; 10 mg/kg IP QDx1
Description: Antibody MSL109 (an IgG1 antibody that binds to cytomegalovirus (CMV) glycoprotein H) was used as a control, both as a naked antibody and as an ADC (conjugated to the same synthon (CZ) as the chAb3, chAb18, and chAb13 antibodies). MSL109 is an isotype matched non-targeting control. The methods of this xenograft assay are described below.
NCI-H146 cells, NCI-1650 cells, and EBC-1 cells were obtained from the American Type Culture Collection (ATCC, Manassas, Va.). The cells were cultured as monolayers in RPMI-1640 (NCI-H146, NCI-H1650) or MEM (EBC-1) culture media (Invitrogen, Carlsbad, Calif.) that was supplemented with 10% Fetal Bovine Serum (FBS, Hyclone, Logan, Utah). To generate xenografts, 5×10^6 viable cells were inoculated subcutaneously into the right flank of immune deficient female SCID/bg mice (Charles River Laboratories, Wilmington, Mass.) respectively. The injection volume was 0.2 mL and composed of a 1:1 mixture of S MEM and Matrigel (BD, Franklin Lakes, N.J.). Tumors were size matched at approximately 200 mm^3. Antibodies and conjugates were formulated in 0.9% sodium chloride for injection and injected intraperitoneally. […] Therapy began within 24 hours after size matching of the tumors. Mice weighed approximately 22 g at the onset of therapy. Tumor volume was estimated two to three times weekly. Measurements of the length (L) and width (W) of the tumor were taken via electronic caliper and the volume was calculated according to the following equation: V=L×W^2/2. Mice were euthanized when tumor volume reached 3,000 mm3 or skin ulcerations occurred. Eight mice were housed per cage. Food and water were available ad libitum. Mice were acclimated to the animal facilities for a period of at least one week prior to commencement of experiments. Animals were tested in the light phase of a 12-hour light: 12-hour dark schedule (lights on at 06:00 hours). As described above, human IgG control antibody (MSL109) was used as a negative control agent.
To refer to efficacy of therapeutic agents, parameters of amplitude (TGImax), durability (TGD) of therapeutic response are used. TGImax is the maximum tumor growth inhibition during the experiment. Tumor growth inhibition is calculated by 100*(1−Tv/Cv) where Tv and Cv are the mean tumor volumes of the treated and control groups, respectively. TGD or tumor growth delay is the extended time of a treated tumor needed to reach a volume of 1 cm^3 relative to the control group. TGD is calculated by 100*(Tt/Ct−1) where Tt and Ct are the median time periods to reach 1 cm^3 of the treated and control groups, respectively.

[2] = Observation after conjugation to synthon (Method A); type: physicochemical; details: after conjugation to Bcl-xLi synthon CZ
Description: (§1) Nine anti-B7-H3 chimeric antibodies were conjugated to the Bcl-xL inhibiting (Bcl-xLi) synthon CZ (Example 2.1) using conjugation Method A described below. The resulting ADCs (anti-B7-H3 antibodies conjugated to synthon CZ) were tested for binding to cell surface human B7-H3 by FACS (as described in Example 6) and for cell cytotoxicity in cell lines expressing B7-H3. […] Table 6 provides cell surface binding and cytotoxicity activity of anti-B7-H3 chimera ADCs against breast cancer cell HCC38 expressing human B7-H3.
A solution of Bond-Breaker™ tris(2-carboxyethyl)phosphine (TCEP) solution (10 mM, 0.017 mL) was added to a solution of antibody (10 mg/mL, 1 mL) preheated to 37° C. The reaction mixture was kept at 37° C. for 1 hour. The solution of reduced antibody was added to a solution of synthon (3.3 mM, 0.160 mL in DMSO) and gently mixed for 30 minutes. The reaction solution was loaded onto a desalting column (PD10, washed with Dulbecco's phosphate-buffered saline [DPBS] 3× before use), followed by DPBS (3 mL). The purified ADC solution was filtered through a 0.2 micron, low protein-binding 13 mm syringe-filter and stored at 4° C.

[3] = Size exclusion chromatography, % aggregate of ADC; type: physicochemical; details: ADC with synthon CZ, conjugation Method A
Description: The DAR and percentage aggregation of ADCs synthesized were determined by LC-MS and size exclusion chromatography (SEC), respectively.
Size exclusion chromatography was performed using a Shodex KW802.5 column in 0.2 M potassium phosphate pH 6.2 with 0.25 mM potassium chloride and 15% IPA at a flow rate of 0.75 ml/min. The peak area absorbance at 280 nm was determined for each of the high molecular weight and monomeric eluents by integration of the area under the curve. The % aggregate fraction of the conjugate sample was determined by dividing the peak area absorbance at 280 nm for the high molecular weight eluent by the sum of the peak area absorbances at […] of the high molecular weight and monomeric eluents multiplied by 100%.

[4] = system: HCC38 (breast cancer) cells; assay: In vitro cell viability assay (CellTiter-Glo), HCC38; type: cell-based, human; details: ADC with synthon CZ; HCC38 breast cancer cells; viability after 5 days; read-out: Cytotoxicity (HCC38 cell line IC50nM)
Description: as §1
The tumor cell lines HCC38 (breast cancer), NCI-H1650 (NSCLC) and NCI-H847 (small cell lung cancer cell line) were obtained from American Type Culture Collection (ATCC). Cells were grown in 96-well culture plates using recommended growth media overnight at a density of 5×10^3 (HCC38) or 20×10^3 (NCI-H847) or 40×10^3 (NCI-H1650) per well. The following day, treatments were added in fresh media to triplicate wells. Cellular viability was determined 5 days later using the CellTiter-Glo Luminescent Cell Viability Assay kit (Promega), as directed in the manufacturer's protocol. Cell viability was assessed as percentage of control untreated cells.

[5] = system: HCC38 cell line; assay: Cell cytotoxicity of ADCs in HCC38 cell line; type: cell-based; details: CZ conjugates
Description: The humanization of chAb18 generated 10 variants (described above in Table 9) that retained binding to human and cyno B7-H3 as assessed by FACS (the method of which is described above in Example 6). These variants were further characterized for binding by SPR and were successfully conjugated to the Bcl-xL inhibitor synthon CZ using Method A (described above) and assessed for cell cytotoxicity as described in Example 7. The parental chAb18 from which the variants were derived was also tested as a comparator. All humanized variants had similar binding properties as assessed by biacore, and retained binding activity to cell surface expressed as conjugates with the CZ synthon. The cytotoxicity of all of the variants as CZ synthons were similar to the chAb18 from which they were derived.
Humanized chAb18 variants were conjugated to the CZ synthon and tested for cytotoxicity in HCC38 cell line.

Molecule: MSL109: an IgG1 antibody that binds to cytomegalovirus (CMV) glycoprotein H; isotype matched non-targeting control [reference compound]
- TGD (%) [1]: 0%
- TGImax (%) [1]: 0%

B1: chAb13-CZ (conjugate)
VH: DVQLQESGPDLVKPSQSLSLTCTVTGYSITSGYSWHWIRQFPGNKLEWMGYIHSSGSTNYNPSLKSRISINRDTSKNQFFLQLNSVTTEDTATYYCAGYDDYFEYWGQGTTLTVSS
VL: DIVMTQSQKFMSTSVGDRVSVTCKASQNVGFNVAWYQQKPGQSPKALIYSASYRYSGVPDRFTGSGSGTDFTLTISNVQSEDLAEYFCQQYNSYPFTFGSGTKLEIK
- Conjugation observation [2]: Clear
- % agg by SEC [3]: 8.3%
- IC50 [4]: 0.18 nM
- TGD (%) [1]: 104%
- TGImax (%) [1]: 81%

B2: chAb3-CZ (conjugate)
VH: QVQLQQPGAELVKPGASVKLSCKASGYTFSSYWMHWVKQRPGQGLEWIGLIHPDSGSTNYNEMFKNKATLTVDRSSSTAYVQLSSLTSEDSAVYFCAGGGRLYFDYWGQGTTLTVSS
VL: DVVMTQTPLSLPVSLGDQASISCRSSQSLVHSNGDTYLRWYLQKPGQSPKLLIYKVSNRFSGVPDRFSGSGSGTDFTLKITRVEAEDLGVYFCSQSTHVPYTFGGGTKLEIK
modifications: drug conjugate; Synthetic chAb3 VH amino acid sequence; Synthetic chAb3 VL amino acid sequence
- Conjugation observation [2]: Clear
- % agg by SEC [3]: 6.3%
- IC50 ([5]; Table 14): 0.17 nM
- IC50 [4]: 0.17 nM
- TGD (%) [1]: 109%
- TGImax (%) [1]: 87%

B3: chAb18-CZ (conjugate)
VH: QVQLQQSAAELARPGASVKMSCKASGYSFTSYTIHWVKQRPGQGLEWIGYINPNSRNTDYNQKFKDETTLTADRSSSTAYMQLISLTSEDSAVYYCARYSGSTPYWYFDVWGAGTTVTVSS
VL: QIVLTQSPAILSASPGEKVTMTCRASSSVSYMNWYQQKPGSSPKPWIYATSNLASGVPARFSVSVSGTSHSLTISRVEAEDAATYYCQQWSSNPLTFGAGTKLELK
- Conjugation observation [2]: Clear
- % agg by SEC [3]: 4.3%
- IC50 ([5]; Table 10): 0.28 nM
- IC50 [4]: 0.28 nM
- TGD (%) [1]: 100%
- TGImax (%) [1]: 90%
